Biological target: SET-26::GFP, excessively sumoylated (from F2 ulp-2(tv380) or ulp-2(RNAi) animals) (C. elegans) (UniProt Q9U263)
Assay: co-IP; anti-GFP immunoprecipitation of SET-26::GFP from whole-worm lysates (1% PFA, sonicated), blot with anti-H3K4me3; WT and F2 ulp-2(tv380) backgrounds; 3 biological replicates

Chain of UniProt Q9U263 (Q9U263 whole entry): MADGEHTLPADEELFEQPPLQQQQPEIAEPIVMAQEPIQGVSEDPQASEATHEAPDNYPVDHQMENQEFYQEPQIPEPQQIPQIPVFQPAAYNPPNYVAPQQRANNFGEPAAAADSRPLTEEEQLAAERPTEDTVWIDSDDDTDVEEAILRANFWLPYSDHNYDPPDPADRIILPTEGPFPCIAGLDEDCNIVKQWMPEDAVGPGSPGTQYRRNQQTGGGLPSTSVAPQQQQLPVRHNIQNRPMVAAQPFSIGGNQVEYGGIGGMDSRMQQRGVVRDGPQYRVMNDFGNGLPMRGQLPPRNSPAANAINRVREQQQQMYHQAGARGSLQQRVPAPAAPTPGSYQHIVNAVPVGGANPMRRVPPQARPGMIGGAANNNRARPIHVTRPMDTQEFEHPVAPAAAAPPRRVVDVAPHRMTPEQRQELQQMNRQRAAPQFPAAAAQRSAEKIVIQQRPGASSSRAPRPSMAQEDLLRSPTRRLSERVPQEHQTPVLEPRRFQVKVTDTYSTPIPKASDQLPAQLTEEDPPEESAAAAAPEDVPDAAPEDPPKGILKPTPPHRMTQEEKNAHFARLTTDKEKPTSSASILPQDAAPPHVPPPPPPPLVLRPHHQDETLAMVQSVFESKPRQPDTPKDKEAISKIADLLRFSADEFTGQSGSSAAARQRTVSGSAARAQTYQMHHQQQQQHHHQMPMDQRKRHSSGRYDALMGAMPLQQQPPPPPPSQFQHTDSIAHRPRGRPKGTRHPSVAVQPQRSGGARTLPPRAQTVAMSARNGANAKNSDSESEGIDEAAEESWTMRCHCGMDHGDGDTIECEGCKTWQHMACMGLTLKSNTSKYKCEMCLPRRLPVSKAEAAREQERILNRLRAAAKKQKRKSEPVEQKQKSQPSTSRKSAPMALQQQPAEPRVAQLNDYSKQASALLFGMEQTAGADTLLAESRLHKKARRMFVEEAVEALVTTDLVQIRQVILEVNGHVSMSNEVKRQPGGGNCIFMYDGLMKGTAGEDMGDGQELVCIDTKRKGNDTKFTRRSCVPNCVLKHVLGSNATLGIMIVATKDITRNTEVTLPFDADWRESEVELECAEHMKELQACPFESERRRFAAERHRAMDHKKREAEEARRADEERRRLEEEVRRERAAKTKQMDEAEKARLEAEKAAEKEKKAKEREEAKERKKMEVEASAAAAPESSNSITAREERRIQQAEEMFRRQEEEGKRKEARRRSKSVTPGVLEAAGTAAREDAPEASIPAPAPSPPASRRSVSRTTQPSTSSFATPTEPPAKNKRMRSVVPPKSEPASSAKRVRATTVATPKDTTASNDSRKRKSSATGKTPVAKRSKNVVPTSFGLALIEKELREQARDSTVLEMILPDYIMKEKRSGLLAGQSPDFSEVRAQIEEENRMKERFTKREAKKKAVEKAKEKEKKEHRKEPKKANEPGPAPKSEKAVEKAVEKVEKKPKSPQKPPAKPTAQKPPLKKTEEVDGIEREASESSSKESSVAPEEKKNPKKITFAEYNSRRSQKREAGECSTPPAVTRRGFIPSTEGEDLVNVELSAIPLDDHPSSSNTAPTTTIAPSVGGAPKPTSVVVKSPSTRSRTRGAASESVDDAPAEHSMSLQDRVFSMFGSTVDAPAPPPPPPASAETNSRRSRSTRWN

reduction of binding compared with WT: 55%
Substance: Histone H3 tri-methylated at lysine 4 (H3K4me3) (from UniProt P08898 1-136) (natural protein)
